Reference: patent US9051581B2, “Defense peptides against fungal infection and method of their use” (The Curators of the University of Missouri, priority 2010, dated 2015)

B1: ZmCKX1: recombinant maize cytokinin oxidase scaffold without peptide insert, control (protein)
chain: LAAGTPALGDDRGRPWPASLAALALDGKLRTDSNATAAASTDFGNITSALPAAVLYPSSTGDLVALLSAANSTPGWPYTIAFRGRGHSLMGQAFAPGGVVVNMASLGDAAAPPRINVSADGRYVDAGGEQVWIDVLRASLARGVAPRSWNDYLYLTVGGTLSNAGISGQAFRHGPQISNVLEMDVITGHGEMVTCSKQLNADLFDAVLGGLGQFGVITRARIAVEPAPARARWVRFVYTDFAAFSADQERLTAPRPGGGGASFGPMSYVEGSVFVNQSLATDLANTGFFTDADVARIVALAGERNATTVYSIEATLNYDNATAAAAAVDQELASVLGTLSYVEGFAFQRDVAYAAFLDRVHGEEVALNKLGLWRVPHPWLNMFVPRSRIADFDRGVFKGILQGTDIVGPLIVYPLNKSMWDDGMSAATPSEDVFYAVSLLFSSVAPNDLARLQEQNRRILRFCDLAGIQYKTYLARHTDRSDWVRHFGAAKWNRFVEMKNKYDPKRLLSPGQDIFN
B2: ZmCKX1-Sp2: peptide Sp2 fused to the C-terminus of the scaffold protein ZmCKX1, expressed in Pichia pastoris (protein)
chain: LAAGTPALGDDRGRPWPASLAALALDGKLRTDSNATAAASTDFGNITSALPAAVLYPSSTGDLVALLSAANSTPGWPYTIAFRGRGHSLMGQAFAPGGVVVNMASLGDAAAPPRINVSADGRYVDAGGEQVWIDVLRASLARGVAPRSWNDYLYLTVGGTLSNAGISGQAFRHGPQISNVLEMDVITGHGEMVTCSKQLNADLFDAVLGGLGQFGVITRARIAVEPAPARARWVRFVYTDFAAFSADQERLTAPRPGGGGASFGPMSYVEGSVFVNQSLATDLANTGFFTDADVARIVALAGERNATTVYSIEATLNYDNATAAAAAVDQELASVLGTLSYVEGFAFQRDVAYAAFLDRVHGEEVALNKLGLWRVPHPWLNMFVPRSRIADFDRGVFKGILQGTDIVGPLIVYPLNKSMWDDGMSAATPSEDVFYAVSLLFSSVAPNDLARLQEQNRRILRFCDLAGIQYKTYLARHTDRSDWVRHFGAAKWNRFVEMKNKYDPKRLLSPGQDIFNMLESHAWPPRAI
B3: ZmCKX1-Sp39: peptide Sp39 fused to the C-terminus of the scaffold protein ZmCKX1, expressed in Pichia pastoris (protein)
chain: LAAGTPALGDDRGRPWPASLAALALDGKLRTDSNATAAASTDFGNITSALPAAVLYPSSTGDLVALLSAANSTPGWPYTIAFRGRGHSLMGQAFAPGGVVVNMASLGDAAAPPRINVSADGRYVDAGGEQVWIDVLRASLARGVAPRSWNDYLYLTVGGTLSNAGISGQAFRHGPQISNVLEMDVITGHGEMVTCSKQLNADLFDAVLGGLGQFGVITRARIAVEPAPARARWVRFVYTDFAAFSADQERLTAPRPGGGGASFGPMSYVEGSVFVNQSLATDLANTGFFTDADVARIVALAGERNATTVYSIEATLNYDNATAAAAAVDQELASVLGTLSYVEGFAFQRDVAYAAFLDRVHGEEVALNKLGLWRVPHPWLNMFVPRSRIADFDRGVFKGILQGTDIVGPLIVYPLNKSMWDDGMSAATPSEDVFYAVSLLFSSVAPNDLARLQEQNRRILRFCDLAGIQYKTYLARHTDRSDWVRHFGAAKWNRFVEMKNKYDPKRLLSPGQDIFNYNKPSFQDHSVI

Tests used:
[1] = tested on: 20 kDa Phakopsora pachyrhizi protein; test: Far-western assay for P. pachyrhizi proteins that bind the peptides; type: binding; details: protein from germinated urediniospores; bait protein, ZmCKX1 antibody detection
Description: A far-western assay was used to identify P. pachyrhizi proteins that bind to the disclosed peptides (3, 35). To prepare fungal proteins, MOS-2008 urediniospores were germinated and grown for 4 h. Fungal tissues were ground in liquid nitrogen and suspended in phosphate buffer (pH. 6.5) containing 0.1 M mannitol and Tween-20. Fungal debris was separated from soluble material by centrifugation, and the protein concentration of the soluble fraction was determined. Equal amounts of protein were loaded into the wells of an acrylamide gel, separated by SDS-PAGE, and then transferred to PVDF membrane. The membranes were incubated with a bait protein that consisted of the ZmCKX1 scaffold alone, ZmCKX1-Sp2, or ZmCKX1-Sp39. The unbound bait proteins were washed off of the blot, and the blot was incubated with ZmCKX1 polyclonal antibody (1), followed by a second antibody, anti-rabbit IgG conjugated to alkaline phosphatase (Promega, Madison, Wis.).

[2] = tested on: Phakopsora pachyrhizi urediniospores; test: In vitro inhibition of urediniospore germ tube growth by ZmCKX1-peptides; type: cell-based; details: for decrease of germ tube growth in comparison to water: 230 μM (highest concentration); for decrease of germ tube growth in comparison to water / reduction of average germ tube length in comparison to water: 8 h incubation; for reduction of average germ tube length in comparison to water: 58 μM
Description: Purified ZmCKX1-Sp2 and ZmCKX1-Sp39 peptides were assessed in vitro for the ability to inhibit urediniospore germination. A 25-μl water droplet containing 300 freshly harvested MOS-2008 urediniospores was incubated on a glass slide in the presence of either ZmCKX1-Sp2 or ZmCKX1-Sp39. Control treatments included urediniospores incubated in water or in the presence of ZmCKX1 alone. Germ tube growth was visualized over time and quantified by image capture and analyses as described previously.

[3] = tested on: Phakopsora pachyrhizi urediniospores; test: Inhibition of soybean leaf infection (rust lesion formation) by ZmCKX1-peptides; type: in vivo; details: 7 days of incubation; 115 μM; water close to 50%
Description: Young, fully expanded leaves were excised from soybean plants (Williams 82) and used for assessment of ZmCKX1-peptide inhibition. Two 10-μl droplets of each ZmCKX1-peptide-urediniospore mixture or control treatment were applied to the upper surface of a single leaf. Each droplet contained 50 urediniospores mixed with either ZmCKX1-Sp2 or ZmCKX1-Sp39 at a final concentration of 115 μM. Control treatments included urediniospores in water or mixed with 115 μM ZmCKX1. Droplet treatments were replicated four times.
Inoculated leaves were incubated for 8 h before rinsing away droplets and drying as described previously. Leaves were transferred to sealed Petri dishes and incubated in a growth chamber at 22° C. and 90% RH, under a 12 h light/dark cycle. The percentage of inoculations that produced rust lesions was recorded at 3 to 4 day intervals for 27 days.

Molecule | detection of fungal protein band in far-western blot [1] | decrease of germ tube growth in comparison to water [2] [%] | germ tube growth inhibition ([2]; all concentrations except 230 μM, 8 h) | inoculations that produced lesions [3] [%] | reduction of average germ tube length in comparison to water [2] [%]
B1 | absent | 26 | less than 10% |  | 
B2 | specifically interacted with a fungal protein approximately 20 kDa in size | 94 |  | 13 | 52
B3 | specifically interacted with a fungal protein approximately 20 kDa in size | 91 |  | 16 | 36
